Reference: patent US20200397913A1, “AXL-SPECIFIC ANTIBODY-DRUG CONJUGATES FOR CANCER TREATMENT” (GENMAB A/S, priority 2015, published 2020)
Where a chain is given by its changes, count along the chain named. Numbers in names are those of the source. Marks after values point to notes of the source that are not given here.

B1: IgG1-AXL-726-M101L: point mutant of IgG1-AXL-726, VH SEQ ID NO:32, VL SEQ ID NO:33 (antibody, V domains shown)
VH: QVQLQQWGAGLLKPSETLSLTCAIDGGSFSGYYWSWIRQPPGKGLEWIGEISHSGRTNYNPSLKSRVTISIDTSKNQFSLKLSSVAAADTAVYYCARFITLIRGAIITHFDYWGQGALVTVSS
VL: DIQMTQSPSSLSASVGDRVTITCRASQGISSWLAWYQQKPEKAPKSLIYAASSLQSGVPSRFSGSGSGTDFTLTISSLQPEDFATYYCQQYHSYPYTFGQGTKLEIK
modifications: homo sapiens
B2: IgG1-AXL-148: human IgG1,κ anti-AXL antibody, VH SEQ ID NO:5, VL SEQ ID NO:6; Ig2 domain binding (antibody, V domains shown)
VH: EVQLLESGGGLVQPGGSLRLSCAASGFTFSSYAMTWVRQAPGKGLEWVSAISISGGSTFYADSVKGRFTISRDNSKNTLYLQMNSLRAEDTAVYYCRGYSGYVYDAFDFWGQGTMVTVSS
VL: B1 VL with S31N, H92N, Y96L, Q100G, L104V
modifications: homo sapiens

How the values were obtained:
ES0195 tumors = experiment: Esophageal cancer PDX model ES0195; format: in vivo, BALB/c nude mice; conditions: 20 mg/kg i.p. at day 0, 7 and 14
Protocol: Tumor fragments from donor mice bearing patient-derived esophageal xenografts (ES0195) were used for inoculation into BALB/c nude mice. Each mouse was inoculated subcutaneously at the right flank with one tumor fragment (2-3 mm in diameter) and tumors were allowed to grow until the tumor volume was about 150 mm^3. […] The antibodies and ADCs were dosed intravenously (i.v.) at 4 mg/kg at day of randomization (day 0) and day 7. Paclitaxel was dosed intra-peritoneally (i.p.) at 20 mg/kg at day 0, 7, and 14. Tumor volumes (mm^3) were monitored twice weekly and were calculated from caliper (PLEXX) measurements as: 0.52×(length)×(width)^2.

CV1664 tumors = experiment: Cervical cancer PDX model CV1664; format: in vivo, BALB/c nude mice
Protocol: Inoculation of tumor fragments into BALB/c nude mice and randomization was performed as described in Example 21.

A431 cells = experiment: Antibody-dependent cell-mediated cytotoxicity (51Cr release); format: cell-based, human; conditions: concentrations up to 10 μg/mL
Protocol: The ability of anti-AXL antibodies to induce ADCC of A431 epidermoid carcinoma cells was determined as explained below. As effector cells, peripheral blood mononuclear cells from healthy volunteers (UMC Utrecht, The Netherlands) were used.
A431 cells were collected (5×10^6 cells) in culture medium (RPMI 1640 culture medium supplemented with 10% fetal calf serum (FSC)), to which 100 μCi ^51Cr (Chromium-51; Amersham Biosciences Europe GmbH, Roosendaal, The Netherlands) had been added, and the mixture was incubated in a 37° C. water bath for 1 hour (hr) while shaking. After washing of the cells (twice in PBS, 1200 rpm, 5 min), the cells were resuspended in RPMI1640/10% FSC and counted by trypan blue exclusion. Cells were diluted to a density of 1×10^5 cells/mL.
Peripheral blood mononuclear cells (healthy volunteers, UMC Utrecht, Utrecht, The Netherlands) were isolated from 45 mL of freshly drawn heparin blood by Ficoll (Bio Whittaker; lymphocyte separation medium, cat 17-829E) according to the manufacturer's instructions. After resuspension of cells in RPMI1640/10% FSC, cells were counted by trypan blue exclusion and diluted to a density of 1×10^7 cells/mL.
50 μl of ^51Cr-labeled targets cells were pipetted into 96-well plates, and 50 μl of antibody were added, diluted in RPMI1640/10% FSC (3-fold dilutions at final concentrations range 0.01-10 μg/mL). Cells were incubated (room temperature (RT), 15 min), and 50 μl effector cells were added, resulting in an effector to target ratio of 100:1 (for determination of maximal lysis, 100 μl 5% Triton-X100 was added instead of effector cells; for determination of spontaneous lysis, 50 μL target cells and 100 μL RPMI1640/10% FSC were used). Cells were incubated overnight at 37° C. and 5% CO2. After spinning down cells (1200 rpm, 10 min), 70 μL of supernatant was harvested into micronic tubes, and counted in a gamma counter. The percentage specific lysis was calculated as follows:
% specific lysis=(cpm sample−cpm target cells only)/(cpm maximal lysis−cpm target cells only),
wherein cpm is counts per minute.

[1] = test system: MDA-MB-231 and Calu-1 cells; experiment: Internalization of cell surface bound HuMab-AXL by flow cytometry; format: cell-based, human; conditions: 1 hour 4° C, then overnight 37° C versus 4° C
Protocol: Internalization of cell surface bound HuMab-AXL antibodies to MDA-MB-231 and Calu-1 cells (human lung carcinoma cell line; ATCC, catalognumber HTB-54) was evaluated by flow cytometry. 50,000 cells were seeded in 96-well tissue culture plates and allowed to attach for 6 hrs at 37° C. Plates were incubated at 4° C. for 30 minutes before incubation with serial dilutions of AXL-antibodies (final concentration range 0.0032-10 μg/mL) at 4° C. for 1 hour. Subsequently, the medium was replaced by tissue culture medium without antibody and cells were incubated overnight (16-18 hours) at 37° C. or 4° C. […] Finally, cells were washed twice in PBS/0.1% BSA/0.02% azide, resuspended in 120 μL PBS/0.1% BSA/0.02% azide and analyzed on a FACS Cantoll (BD Biosciences).
(§1) Binding curves were analyzed using non-linear regression (sigmoidal dose-response with variable slope) using GraphPad Prism V5.04 software (GraphPad Software, San Diego, Calif., USA).

SKMEL147 tumors = experiment: SKMEL147 melanoma xenograft model; format: in vivo, NMRI nude mice; conditions: 4 mg/kg i.v. on day 12 and day 19 after tumor cell injection
[2] = biological target: T1, AXLECDHis (extracellular domain of human AXL) (Homo sapiens, UniProt P30530); experiment: Binding affinity by Bio-Layer Interferometry (Octet); conditions: soluble AXLECDHis, 30° C, 1:1 model
T1 construct: the extracellular domain (ECD) of human AXL (aa 1-447) with a C-terminal His tag (AXLECDHis); His tag (C); made in house; host or cells: HEK-293F

human AXL = biological target: T2, human AXL (Homo sapiens, UniProt P30530); experiment: Flow cytometry binding to HEK293T cells transfected with full length human AXL; conditions: at least 3 experiments
T2 construct: expression constructs for full length human AXL; expressed in transfected cells; host or cells: HEK293T

[3] = biological target: T3, human AXL with a cynomolgus monkey extracellular domain (ECD) (Homo sapiens, UniProt P30530, P441T/S191N/S285L/T105A/T112A/T125N/T443A); experiment: Flow cytometry binding to HEK293T cells transfected with human AXL with cynomolgus ECD; conditions: at least 3 experiments
T3 construct: aa 1-447); expressed in transfected cells; host or cells: HEK293T

[4] = biological target: T4, human AXL with a mouse ECD (Mus musculus, UniProt Q00993, A791T/A867T/C878S/D603E/D853E/E609A/F637Y/G606S/G869S/H824Y/L452V/L825P/L872Q/P881A/R785Q/R828P/S823G/S856P/S873P/T871A/V766A); experiment: Flow cytometry binding to HEK293T cells transfected with human AXL with mouse ECD; conditions: 0.0024-10 μg/mL
T4 construct: aa 1-441); expressed in transfected cells; host or cells: HEK293T

AXL on A431 cells = biological target: T5, AXL on A431 cells (Homo sapiens, UniProt P30530); experiment: Antibody binding to A431 cells with or without Gas6 pre-incubation
T5 construct: AXL-positive A431 cells were incubated; endogenous in cells; host or cells: A431

[5] = biological target: T6, human AXL transiently expressed by HEK-293F cells (Homo sapiens, UniProt P30530); experiment: Homogeneous antigen specific screening assay (FMAT); conditions: binding to human AXL on HEK-293F cells
T6 construct: HEK-293F cells transiently expressing full length human AXL; expressed in transfected cells; host or cells: HEK-293F

PAXF1657 tumors = experiment: PAXF1657 pancreas cancer PDX model; format: in vivo, NMRI nu/nu mice; conditions: dose not stated in the sentence (FIG. 10B, 10C)
Protocol: Human pancreas tumor tissue was subcutaneously implanted in the left flank of 5-7 weeks old female NMRI nu/nu mice. […] At day of randomization (day 0), the 3 ADCs were dosed intravenously (i.v.) at either 4 mg/kg or 2 mg/kg, and the control group received a single dose of IgG1-b12 (4 mg/kg). Tumor volumes (mm^3) were monitored twice weekly and were calculated from caliper (PLEXX) measurements as: 0.52×(length)×(width)^2.

[6] = biological target: Gas6 binding to AXL on A431 cells (Homo sapiens, UniProt P30530); experiment: Gas6 binding to A431 cells pre-incubated with AXL antibodies; parameters: endogenous in cells; host or cells: A431; conditions: pre-incubation with 10 μg/mL antibody; control antibody b12
Protocol: Alternatively, A431 cells were pre-incubated with 10 μg/mL AXL antibodies (15 minutes, 4° C.) to assess if the AXL ligand Gas6 could still bind in presence of AXL antibodies. […] After washing three times in PBS/0.1% BSA/0.02% azide, cells were incubated with mouse anti-Gas6 IgG2a (R&D Systems; cat no. MAB885) at 4° C. for 30 min. After washing three times in PBS/0.1% BSA/0.02% azide, cells were incubated with FITC-labelled goat anti-mouse IgG (Dako, Heverlee, Belgium; cat no. F049702) at 4° C. for 30 min in the dark. Next, cells were washed twice in PBS/0.1% BSA/0.02% azide, resuspended in 120 μL PBS/0.1% BSA/0.02% azide and analyzed on a FACS Cantoll (BD Biosciences).
as §1
Therefore, binding of Gas6 to A431 cells that had been pre-incubated with 10 μg/mL AXL antibodies was tested as described in Example 2.

T4 sequence (Q00993 19-888 with the stated changes): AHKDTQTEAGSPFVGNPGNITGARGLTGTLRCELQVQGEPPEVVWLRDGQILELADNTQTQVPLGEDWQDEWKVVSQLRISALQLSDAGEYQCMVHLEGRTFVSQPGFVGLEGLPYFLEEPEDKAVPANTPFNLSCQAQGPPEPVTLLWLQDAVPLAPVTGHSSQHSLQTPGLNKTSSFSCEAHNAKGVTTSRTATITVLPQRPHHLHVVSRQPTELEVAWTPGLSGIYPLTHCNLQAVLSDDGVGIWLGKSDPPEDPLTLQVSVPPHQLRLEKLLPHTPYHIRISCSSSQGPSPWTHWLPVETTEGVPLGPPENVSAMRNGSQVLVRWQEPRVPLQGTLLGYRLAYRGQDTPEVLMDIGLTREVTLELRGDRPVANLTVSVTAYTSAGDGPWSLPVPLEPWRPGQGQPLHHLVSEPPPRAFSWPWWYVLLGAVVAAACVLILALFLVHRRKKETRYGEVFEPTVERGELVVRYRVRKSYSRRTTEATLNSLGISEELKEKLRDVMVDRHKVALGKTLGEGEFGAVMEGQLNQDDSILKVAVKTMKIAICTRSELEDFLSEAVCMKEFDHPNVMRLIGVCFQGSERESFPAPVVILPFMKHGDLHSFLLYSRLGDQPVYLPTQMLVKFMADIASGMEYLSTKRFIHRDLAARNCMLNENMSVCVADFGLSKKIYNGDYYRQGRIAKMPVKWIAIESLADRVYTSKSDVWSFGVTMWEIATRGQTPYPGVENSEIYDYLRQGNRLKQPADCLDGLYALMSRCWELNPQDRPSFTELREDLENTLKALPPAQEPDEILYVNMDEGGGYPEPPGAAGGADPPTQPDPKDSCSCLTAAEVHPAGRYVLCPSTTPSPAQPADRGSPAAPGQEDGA

| Molecule | anti-tumor activity (ES0195 tumors) | anti-tumor activity (CV1664 tumors; 20 mg/kg intraperitoneally at day 0 and 7) | induction of ADCC (A431 cells) | internalization of membrane-bound antibody [1] | anti-tumor activity (SKMEL147 tumors) | anti-tumor activity (CV1664 tumors; 4 mg/kg at day 0 and 7) | Kdis [2] [s⁻¹] | Kon [2] [M⁻¹ s⁻¹] | Binding EC50 human AXL Average (s.d.) (human AXL) | Binding EC50 cynomolgus AXL Average (s.d.) [3] | binding to AXL with a mouse ECD [4] | Antibody binding to A431 cells: EC50 w/o Gas6 mean (s.d.) (AXL on A431 cells; no Gas6 pre-incubation) | Antibody binding to A431 cells: EC50 in presence of Gas6 mean (s.d.) (AXL on A431 cells; pre-incubation with 10 μg/mL Gas6) | Maximal binding [5] [Arbitrary units] | anti-tumor activity (PAXF1657 tumors) | Gas6 binding: Maximal binding in presence of AXL antibodies (% of binding in presence of control antibody) [6] [%] |
| --- | --- | --- | --- | --- | --- | --- | --- | --- | --- | --- | --- | --- | --- | --- | --- | --- |
| CC(=O)O[C@H]1C(=O)[C@@]2(C)[C@H]([C@H](OC(=O)c3ccccc3)[C@]3(O)C[C@H](OC(=O)[C@H](O)[C@@H](NC(=O)c4ccccc4)c4ccccc4)C(C)=C1C3(C)C)[C@]1(OC(C)=O)CO[C@@H]1C[C@@H]2O [paclitaxel, reference compound] | tumor growth inhibition | induced partial tumor regression |  |  |  |  |  |  |  |  |  |  |  |  |  |  |
| IgG1-AXL-107: human IgG1,κ anti-AXL antibody, VH SEQ ID NO:1, VL SEQ ID NO:2; Ig1 domain binding |  |  | did not induce significant ADCC | internalize | did not show tumor growth inhibition | only induced minor inhibition of tumor growth |  |  |  |  |  |  |  |  |  |  |
| B1 |  |  | did not induce significant ADCC | internalize |  |  | 6.9e-05 | 210000 | 0.184 (0.117) μg/mL | 0.250 (0.066) μg/mL | not detectable |  |  |  |  |  |
| B2 |  |  | did not induce significant ADCC | internalize |  |  | 0.0044 | 230000 | 0.094 (0.059) μg/mL | 0.152 (0.080) μg/mL | not detectable | 0.11 (0.13) μg/mL | 0.20 (0.30) μg/mL | 3499 | did not result in anti-tumor activity | 106 |
